In patent US20170267762A1 (APOLLOMICS, published 2017):

T1: mouse PD-1 (mouse, UniProt Q02242 25-169, limits assumed)
T1 sequence (looked up): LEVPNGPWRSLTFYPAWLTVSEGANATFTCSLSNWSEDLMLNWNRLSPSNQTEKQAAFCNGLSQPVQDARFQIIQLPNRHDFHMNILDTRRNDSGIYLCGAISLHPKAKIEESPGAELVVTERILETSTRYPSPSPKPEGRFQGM

T2: human CTLA4 (human, UniProt P16410 36-161, limits assumed)
T2 sequence (looked up): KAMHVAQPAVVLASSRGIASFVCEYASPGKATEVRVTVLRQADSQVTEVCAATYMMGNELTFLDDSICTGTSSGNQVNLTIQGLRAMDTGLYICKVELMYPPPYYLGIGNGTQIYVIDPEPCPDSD

T3: human ICOS (human, UniProt Q9Y6W8 21-140, limits assumed)
T3 sequence (looked up): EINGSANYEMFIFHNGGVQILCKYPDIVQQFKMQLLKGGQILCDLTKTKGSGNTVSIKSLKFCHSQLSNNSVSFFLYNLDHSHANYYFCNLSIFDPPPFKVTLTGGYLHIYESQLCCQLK


Assays:
[1] = biological target: T4, human PD-1 (construct not stated) (human, UniProt Q15116 25-167, limits assumed); test: Biacore (summary table; unit from Table 7)
T4 construct: also called PD-1 analyte
Method: (§1) To further characterize the binding characteristics of the antibodies, 10 hybridoma antibodies were profiled using Biacore (Biacore 3000, GE) to elucidate binding kinetics and calculate equilibrium binding constants. This assay was performed by capture method, using the mouse antibody capture kit (BR-1008-38, GE). After diluting anti-mouse Fc mab to 25 μg/ml in pH 5.0 immobilization buffer, immobilization was conducted with the parameters shown in Table 6 at a flow rate of 5 μl/min. The kinetic runs were done by 1) injecting ligand for typical 0.5-1 min at flow rate of 10 μl/min.; 2) injecting analytes of choice for typical 3 min followed by dissociation in running buffer (1× PBS-P20) for typical 5-10 min at flow rate of 30 μl/min.; and 3) injecting regeneration solution 10 mM Glycine pH1.7 for typical 1-2 min at flow rate of 10 μl/min.

[2] = biological target: T5, human PD-1 extracellular domain fused with mouse Fc (PD-1-mFc) (human, UniProt Q15116 25-170); test: blockage ELISA, coated PD-1-mFc, competitor PDL-1-mFc-biotin
T5 construct: extracellular domain; not used because of the label; also called hPD-1-mFc; human PD-1-mouse Fc fusion protein
Method: (§2) PD-1-mFc antigen (CrownBio) was suspended in PBS (Hyclone,Cat No:SH30256.01B) buffer (2 ug/ml, 100 ul/ well) and coated on the 96 well plate (costar, Cat No.:9018) 4° C. overnight. Plates were washed 3 times using washing buffer: PBS+0.05% Tween 20(Sigma, Cat No.:P1379). 200 ul of blocking buffer (PBS+1%BSA(Roche, Cat No.:738328)), was added to each well, incubated at 37° C. for 1 hour, and washed 3 times. Various concentrations (suitable dilutions of hybridoma supernatant in PBS) of the anti-PD-1 Abs were added to the wells (100 μl/well) and incubated at 37° C. for 1 hour. […] Secondary antibody (Avidin HRP eBioscience cat No.:E07418-1632, 1:500, 100 ul/well) was added, incubated at 37 ° C. for 0.5 hour, and washed 3 times. TMB (Sigma, Cat No.: T0440, 100 ul/well) was added, and incubated for 3 min at RT. To stop the reaction, 2N H2SO4 (100 ul/well), was added. The colorimetric signals were developed and read at 450 nm using a Auto Plate SpectraMax Plus (Supplier: Molecular Devices; Model: MNR0643; Software: SoftMax Pro v5.4).
(§3) The purified hybridoma antibodies were characterized further based on ELISA and FACS analyses.

mouse PD-1 = biological target: T1, mouse PD-1; test: assays not detailed
[3] = biological target: T6, human PD-1 on cells (293T cells transfected with human PD-1) (human, UniProt Q15116 25-288); test: FACS on hPD-1-293T cells
T6 construct: whole, on cells; Also used as the target for the functional rows, where PD-1 stands on human T cells
Method: The cells were incubated with the indicated antibody (20 ug/ml with the dilution of ⅕) at 4° C. for 1 h. Cells were washed three times with FACS buffer. A secondary antibody (PE Goat anti-mouse: 1:200; PE mouse anti-human: 1:10) was added to the cells at 100 ul/well, and incubated at 4° C. for 40min. Cells were washed three times with FACS buffer and analyzed by FACS Array.
as §3

[4] = biological target: T5, human PD-1 extracellular domain fused …; test: blockage ELISA, competitor PDL-1-mFc-biotin (summary table; IC50 in ng/ml in Table 2)
Method: as §2

[5] = biological target: T7, human PD-1 extracellular domain fused with human Fc tag (hPD-1-hFc) (human); test: ELISA binding (summary table)
T7 construct: also called human PD-1-hFc
Method: (§4) ELISA binding analysis was conducted based on human PD-1-hFc Protein. 96-well plates (Costar, Cat No:9018) were coated with 100 μL of 2 μg/ml PD1-hFc (CrownBio) in coating buffer (PBS, Hyclone, Cat No:SH30256.01B) overnight at 4° C. The wells were aspirated and non-specific binding sites were blocked by adding 200 μL of blocking buffer with 1% (w/v) of bovine serum albumin (BSA, Roche, Cat No: 738328) and incubating for 1 hour at 37° C. After the plates are washed three times with wash buffer (PBS with 0.05%(v/v) Tween20 (Sigma, Cat No:P1379), 100 μL/well of a suitable dilutions of hybridoma supernatant in blocking buffer were added and incubated at room temperature for 1 hour. The plates were washed and incubated with 100 μL/well of Goat anti-Mouse IgG (H+L) (Thermo, Cat No: 31432) in blocking buffer for 60 min. After the plates were washed, 100 μL/well of substrate solution (TMB(eBioscience, Cat No:00-4201-56) was added and the plates were incubated for 2min at room temperature. 100 μL/well of stop solution (2N H2SO4) was added to stop the reaction. The colorimetric signals were developed and read at 450 nm using a Auto Plate SpectraMax Plus (Supplier: Molecular Devices; Model: MNR0643; Software: SoftMax Pro v5.4).
as §3

[6] = biological target: T7, human PD-1 extracellular domain fused …; test: ELISA on coated PD1-hFc
Method: as §4, §3

[7] = biological target: T6, human PD-1 on cells (293T cells …); test: FACS blockage on hPD-1-293T cells, competitor biotin PD-L2
Method: (§5) Various concentrations of the testing hybridoma antibodies were added to the cell suspension and incubated at 4° C. for 60 minutes in 96 well plates. […] Plates were washed 3 times, and mouse anti-biotin PE antibody (Biolgend, cat# 409004) was added. Flow cytometric analyses were performed using a FACS Array.
as §3

human CTLA4 = biological target: T2, human CTLA4; test: Interaction with CTLA4, ICOS CD28; assay not detailed
human ICOS = biological target: T3, human ICOS; test: as above
human CD28 = human CD28 (human, UniProt P10747 19-152, limits assumed); test: as above
[8] = biological target: T4, human PD-1 (construct not stated); test: Biacore, antibody captured, PD-1 analyte
Method: as §1

[9] = biological target: T6, human PD-1 on cells (293T cells …); test: FACS blockage on hPD-1-293T cells, competitor biotin PD-L1
Method: as §5, §3

T5 sequence (Q15116 25-170): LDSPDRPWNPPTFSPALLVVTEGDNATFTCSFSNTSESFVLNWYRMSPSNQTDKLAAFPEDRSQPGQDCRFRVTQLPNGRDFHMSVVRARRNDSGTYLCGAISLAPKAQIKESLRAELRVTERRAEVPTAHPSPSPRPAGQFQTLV
T6 sequence (Q15116 25-288): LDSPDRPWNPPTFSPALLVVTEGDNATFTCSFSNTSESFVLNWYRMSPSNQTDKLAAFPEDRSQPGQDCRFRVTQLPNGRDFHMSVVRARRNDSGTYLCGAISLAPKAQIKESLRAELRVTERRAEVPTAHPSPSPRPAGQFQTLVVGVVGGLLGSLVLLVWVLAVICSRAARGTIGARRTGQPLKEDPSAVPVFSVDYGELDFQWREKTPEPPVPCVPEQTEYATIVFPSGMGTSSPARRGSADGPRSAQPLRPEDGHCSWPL
T7 sequence (chain, as listed by the source limits assumed): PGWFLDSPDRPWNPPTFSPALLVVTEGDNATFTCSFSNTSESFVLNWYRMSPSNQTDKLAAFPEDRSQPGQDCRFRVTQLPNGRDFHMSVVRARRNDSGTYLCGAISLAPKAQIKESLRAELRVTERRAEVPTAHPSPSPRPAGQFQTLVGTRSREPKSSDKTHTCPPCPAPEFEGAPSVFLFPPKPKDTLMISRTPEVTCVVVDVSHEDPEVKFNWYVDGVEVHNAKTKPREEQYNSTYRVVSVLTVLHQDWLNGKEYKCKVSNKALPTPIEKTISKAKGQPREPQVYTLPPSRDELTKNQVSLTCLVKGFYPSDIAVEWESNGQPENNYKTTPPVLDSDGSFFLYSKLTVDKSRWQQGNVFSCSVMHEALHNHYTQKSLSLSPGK
T4 sequence (Q15116 25-167 limits assumed): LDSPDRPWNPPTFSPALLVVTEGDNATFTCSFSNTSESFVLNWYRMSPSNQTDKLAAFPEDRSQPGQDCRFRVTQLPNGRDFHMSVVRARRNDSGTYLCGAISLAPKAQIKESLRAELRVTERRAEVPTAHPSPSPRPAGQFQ
Sequence of human CD28 (P10747 19-152 limits assumed): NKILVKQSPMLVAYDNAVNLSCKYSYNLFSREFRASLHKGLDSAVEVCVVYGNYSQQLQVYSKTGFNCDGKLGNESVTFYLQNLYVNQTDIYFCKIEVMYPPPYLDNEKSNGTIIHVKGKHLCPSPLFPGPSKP

| Binder | Kd [1] | IC50 [2] | binding result (mouse PD-1) | EC50 [3] | IC50 [4] | EC50 [5] | EC50 [6] | IC50 [7] | binding result (human CTLA4) | binding result (human ICOS) | binding result (human CD28) | Ka [8] | Kd [8] | koff [8] | kon [8] | IC50 [9] |
| --- | --- | --- | --- | --- | --- | --- | --- | --- | --- | --- | --- | --- | --- | --- | --- | --- |
| 13F1 murine anti-PD-1 antibody (antibody, V domains shown, Purified hybridoma antibody; also called 13F1-mIgG1) VH: DVQLQESGPGLVKPSQSLSLTCTVTGYSITSDYAWNWIRQFPGNQLEWMAYISYSGYTSYNPSLKSRISITRDTSKNQFFLQLNSVTTEDTATYYCARSLDYDYGTMDYWGQGTSVTVSS VL: QIVLSQSPAILSASPGEKVTMTCRANSSVSSMHWYQQKPGSSPEPWIYAISNLAFGVPTRFSGSGSGTSYSLTISRVEAEDAATYFCQQWSSRPPTFGGGTKLEIKR | 0.0278 nM | 0.701 mg/L | no binding | 0.0308 mg/L | 0.701 mg/L | 0.0173 mg/L | 0.0173 mg/L | 0.0529 mg/L | no binding | no binding | no binding | 3.6e+10 M⁻¹ | 0.0278 nM | 3.92e-05 s⁻¹ | 1.41e+06 M⁻¹ s⁻¹ | 0.0199 mg/L |
| 6E1 murine anti-PD-1 antibody (antibody, V domains shown, Purified hybridoma antibody; also called 6E1-mIgG1) VH: EVKLVESGGGLVKPGGSLKLSCAASGFTFSSYGMSWVRQTPEKRLEWVATISGGGRDTYYLDSVKGRFTISRDNAKNNLYLQMSSLRSEDTALYYCVRQYYDDWFAYWGQGTLVSNSA VL: DIVLTQTPATLSVTPGDSVSLSCRASQSLSNNLHWYQQKSHESPRLLIKYASQSISGIPSRFSGSGSGTDFTLSINSVETEDFGMYFCQQSNSWPLTFGAGTKLEMKR | 0.0255 nM | 0.961 mg/L | no binding | 0.0491 mg/L | 0.961 mg/L | 0.0157 mg/L | 0.0157 mg/L | 0.114 mg/L | no binding | no binding | no binding | 3.92e+10 M⁻¹ | 0.0255 nM | 2.83e-05 s⁻¹ | 1.11e+06 M⁻¹ s⁻¹ | 0.0268 mg/L |
| 7A4 murine anti-PD-1 antibody (antibody, V domains shown, Purified hybridoma antibody; also called 7A4-mIgG1) VH: QIHLVQSGPELKKPGETVKISCKASGYTFTNFGMNWVKQAPGKGLKWMGWISGYTREPTYAADFKGRFAISLETSASTAYLQINDLKNEDMATYFCARDVFDYWGQGTTLTVSS VL: DIVLTQSPASLAVSLGQRATISCRASESVDNYGYSFMNWFQQKPGQPPKLLIYRASNLESGIPARFSGSGSRTNFTLTINPVEADDVATYFCQQSNADPTFGGGTNLEIKR |  | 0.699 mg/L | no binding | 0.0389 mg/L | 0.699 mg/L | 0.00932 mg/L | 0.00932 mg/L | 0.00445 mg/L | no binding | no binding | no binding | 4.06e+10 M⁻¹ | 0.0246 nM | 4.82e-05 s⁻¹ | 1.96e+06 M⁻¹ s⁻¹ | 0.0289 mg/L |

Now from value to binder:

| Kd [1] | IC50 [2] | binding result (mouse PD-1) | EC50 [3] | IC50 [4] | EC50 [5] | EC50 [6] | IC50 [7] | binding result (human CTLA4) | binding result (human ICOS) | binding result (human CD28) | Ka [8] | Kd [8] | koff [8] | kon [8] | IC50 [9] | Binder |
| --- | --- | --- | --- | --- | --- | --- | --- | --- | --- | --- | --- | --- | --- | --- | --- | --- |
| 0.0193 nM | 1.11 mg/L | no binding | 0.0775 mg/L | 1.11 mg/L | 0.0194 mg/L | 0.0194 mg/L | 0.21 mg/L | no binding | no binding | no binding | 5.17e+10 M⁻¹ | 0.0193 nM | 2.88e-05 s⁻¹ | 1.49e+06 M⁻¹ s⁻¹ | 0.0562 mg/L | 22A5 murine anti-PD-1 antibody (antibody, V domains shown, Purified hybridoma antibody; also called 22A5-mIgG1) VH: EVKLVESGGGLVKPGGSLKLSCSASGFSFSYYDMSWVRQTPEKGLEWVATISGGGRNTYFIDSVKGRFTISRDNVKNNLYLLMSSLRSEDTALYYCASPYEGAVDFWGQGTSVTVSS VL: DIVMTQSHKVMSTSVGDRVSITCKASQDVDNAVAWYQQNPGQSPKLLIKWASTRHHGVPDRFTGSGSGTDFTLTISTVQSEDLADFFCQQYSTFPYTFGGGTKLEIKR |
| 0.0184 nM | 0.873 mg/L | no binding | 0.0454 mg/L | 0.873 mg/L | 0.0134 mg/L | 0.0134 mg/L | 0.063 mg/L | no binding | no binding | no binding | 5.44e+10 M⁻¹ | 0.0184 nM | 3.67e-05 s⁻¹ | 2e+06 M⁻¹ s⁻¹ | 0.0356 mg/L | 15H5 murine anti-PD-1 antibody (antibody, V domains shown, Purified hybridoma antibody; also called 15H5-mIgG1) VH: EVKLVESGGGLVKPGGSLKLSCAASGFAFRSYDMSWVRQTPEKILEWVATISGGGSYTYYQDSVKGRFTISRDNARNTLYLQMSSLRSEDTALYYCASPYGPYFDYWGQGTTLTVSS VL: DIQMNQSPSSLSASLGDTITITCHASQSINVWLSWYQQKPGNIPKLLIYRASNLHTGVPSRFSGSGSGTGFTLTISSLQPDDIATYYCQQGQSYPWTFGGGTKLEIKR |
